Experiments:
MPP7, Q5T2T1 = biological target: T1, MPP7, Q5T2T1; assay: holdup assay; set-up: key: below the threshold = too weak to quantify, mostly under pKd 3.1 to 4; conditions: plain residues with an end cap or a label only (N-terminal biotin on a linker: ado-ado)
T1 sequence (Q5T2T1 134-230, limits assumed, looked up): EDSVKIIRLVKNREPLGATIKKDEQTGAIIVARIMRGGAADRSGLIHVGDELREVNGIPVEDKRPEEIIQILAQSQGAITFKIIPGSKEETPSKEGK

SIPA1L2, Q9P2F8 = biological target: T2, SIPA1L2, Q9P2F8; assay: holdup assay; set-up: key: below the threshold = too weak to quantify, mostly under pKd 3.1 to 4; conditions: plain residues with an end cap or a label only (N-terminal biotin on a linker: ado-ado)
T2 sequence (Q9P2F8 945-1036, limits assumed, looked up): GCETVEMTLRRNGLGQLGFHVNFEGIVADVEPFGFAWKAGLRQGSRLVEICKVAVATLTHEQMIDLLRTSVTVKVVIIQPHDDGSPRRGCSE

Binder | pKd (MPP7, Q5T2T1) | pKd (SIPA1L2, Q9P2F8)
RALRASESGI [ADGRE5, P48960] | below the threshold | below the threshold
GCQGETEDVL [PTH2R, P49190] | below the threshold | below the threshold
ANGLMQTSKL [SSTR5, P35346] | below the threshold | below the threshold
EYRKDNKVAA [LSM14A, Q8ND56;Q8ND56-2] | below the threshold | below the threshold
FEEEAEEEVA [TUBB4B, P68371] | 3.59 | below the threshold
PDGEMMEVLI [AMOTL1, Q8IY63] | 4.24 | below the threshold
PMESGICTIV [TTC24, A2A3L6] | below the threshold | below the threshold
NVYGTESVKI [GRIA3, P42263] | below the threshold | below the threshold
LRYARPADAL [PPP1R3G, B7ZBB8] | below the threshold | below the threshold
NASRTRITFV [MCM7, P33993] | below the threshold | below the threshold
WRSKRTDTLL [RAMP3, O60896] | below the threshold | below the threshold
ETSLVKGIDI [DENND5A, Q6IQ26] | 4.47 | below the threshold
LETREPTNTL [GRIP1, Q9Y3R0] | below the threshold | below the threshold
QELLEYETTV [XKR7, Q5GH72] | below the threshold | below the threshold
SKSLERATQL [COMMD3, Q9UBI1] | below the threshold | 3.51
QSPPNIYYKV [EFNB3, Q15768] | 3.66 | below the threshold
GDHLDRRVVL [VAC14, Q08AM6] | below the threshold | below the threshold
TMQMSLKDLL [GLA, P06280] | below the threshold | below the threshold
SRPRPDDLEI [GJA1, P17302] | below the threshold | below the threshold
VISERNSTTV [C3AR1, Q16581] | below the threshold | below the threshold
PAPGQHTTQI [STK16, O75716] | below the threshold | below the threshold
REVVMRVTTV [MARCHF9, Q86YJ5] | below the threshold | below the threshold
